Measurements published in patent publication US20250195685A1 (CAPSTAN THERAPEUTICS, published 2025).

Assays:
[1] = target: T1, cynomolgus macaque CD8αβ heterodimer, recombinant protein (cynomolgus macaque); assay: BLI kinetics, Fab, antigen amine-coupled to the sensor, 30 °C
T1 construct: In BLI coupled directly to amine-reactive sensor tips; also called cynomolgus CD8αβ heterodimer
Description: The binding kinetics of CBD1033 Fab and its parental CBD1017ch Fab against human CD8αα homodimer, human CD8αβ heterodimer, and cynomolgus macaque CD8ααhomodimer were assessed following the same method in BLI evaluation of humanized Fab variants. For evaluating the binding kinetics against cynomolgus macaque CD8αβ heterodimer protein, the antigen protein was directly coupled onto amine-reactive biosensor tips (Gator Bio) following the manufacturer protocol. Briefly, the sensors were activated for 300 s with a mixture of 1-ethyl-3-(3-dimethylaminopropyl)carbodiimide hydrochloride (EDC) (ThermoFisher Scientific) and 10 mM N-Hydroxysulfosuccinimide sodium salt (sulfo-NHS) (Sigma-Aldrich) in water. The cynomolgus macaque CD8αβ protein diluted to […] in 10 mM sodium acetate buffer, pH 6.0, was allowed to be covalently captured for 300 s to an approximate threshold of 5 nm, and the sensors were subsequently deactivated with 1 M ethanolamine (ETA) (Sigma-Aldrich) solution, pH 8.5, for 300 s. The sensors were then rinsed in the kinetic buffer for 600 s. The rinse step was repeated for an additional 120 s for baseline calculation prior to the measurements of the binding kinetics. The antibody fragment was diluted into kinetic buffer via 3-fold dilution at concentrations ranging from 1000 nM to 1.37 nM. As above, the antigen-captured sensors were incubated in the diluted solutions to capture the Fab fragments for 1200 s to record the association phase. Sensors were subsequently incubated in the kinetic buffer for 1200 s to record the dissociation phase. The shaking speed for all steps was 1000 rpm and the temperature of the performed assays were at 30° C. The kinetic parameters were determined with 1:1 monovalent (Langmuir) binding model using the previous method.

[2] = target: T2, human CD8αα homodimer, recombinant protein (Acro Biosystems) (human, UniProt P01732 22-182); assay: BLI kinetics, F(ab) on biotinylated CD8α (SA-XT sensor), 1:1 fit, 30 °C
T2 construct: also called CD8αα antigen; biotinylated CD8α recombinant protein (CDA-H82E3)
Description: (§1) Biolayer interferometry kinetic assays were performed using a GatorBio Gator Plus BLI system. Kinetic buffer containing PBS plus 0.1% Tween 20 and 0.2% BSA was used for calculating the baseline. To measure the binding kinetics of anti-CD8α antibody fragment (Fab), streptavidin-immobilized SA-XT sensors (#160029, Gator Bio) were prehydrated in the kinetic buffer and loaded with […] biotinylated CD8α recombinant protein (CDA-H82E3, Acro Biosystems) at a spin speed of 400 rpm to a threshold response of 10 nm. The sensors were then incubated in the kinetic buffer for 300 s to acquire a baseline measurement prior to each association. […] The antigen-loaded sensors were incubated in the diluted solutions to capture Fab fragments for 300 s to record the association phase. Sensors were finally incubated in the kinetic buffer for 900 s to record the dissociation phase. The spin speed for all steps except the antigen loading step was 1000 rpm. The temperature of the performed assays was either 30° C. or 37° C. during the association and dissociation phases. Sensor data were baseline subtracted, and global curve fitting of the kinetic data from six different analyte concentrations at a 1:1 monovalent binding model was performed using GatorOne software (version v2.10) to determine kinetic rate constants (kₒₙ and koff) and equilibrium dissociation constants (KD) of the analyzed antibodies.

[3] = target: T3, cynomolgus macaque CD8αα homodimer, recombinant protein (cynomolgus macaque); assay: BLI kinetics, Fab, 37 °C as printed in the table
T3 construct: also called cynomolgus CD8αα homodimer
Description: as §1
(§2) The binding kinetics of CBD1033 Fab and its parental CBD1017ch Fab against human CD8αα homodimer, human CD8αβ heterodimer, and cynomolgus macaque CD8ααhomodimer were assessed following the same method in BLI evaluation of humanized Fab variants. For evaluating the binding kinetics against cynomolgus macaque CD8αβ heterodimer protein, the antigen protein was directly coupled onto amine-reactive biosensor tips (Gator Bio) following the manufacturer protocol. Briefly, the sensors were activated for 300 s with a mixture of 1-ethyl-3-(3-dimethylaminopropyl)carbodiimide hydrochloride (EDC) (ThermoFisher Scientific) and 10 mM N-Hydroxysulfosuccinimide sodium salt (sulfo-NHS) (Sigma-Aldrich) in water.

[4] = target: T3, cynomolgus macaque CD8αα homodimer, …; assay: BLI kinetic sensorgram, 1:1 global fit (legend: 30 °C; FIG. 2I prints 37 °C for the same constants)
Description: as §1, §2

[5] = target: T2, human CD8αα homodimer, recombinant …; assay: BLI kinetics, F(ab) on biotinylated CD8α (SA-XT sensor), 1:1 fit, 37 °C [CONT'ED]
Description: as §1

[6] = target: T2, human CD8αα homodimer, recombinant …; assay: BLI kinetics, Fab, 37 °C
Description: as §1, §2

[7] = target: human CD8αβ heterodimer, recombinant protein (human, UniProt P01732 22-182; P10966 22-170, limits assumed); assay: BLI kinetics, Fab, 37 °C
Description: as §1, §2

[8] = target: T4, human CD8 on cells (CD8-overexpressing HEK293T cells, SupT1, HPB-ALL, human T cells, transfected HEK293 of … (human, UniProt P01732 22-235)); assay: flow cytometry on CD8-overexpressing HEK293T cells, non-linear fit of normalized gMFI
T4 construct: whole, on cells; also called cell surface CD8
Description: To obtain the results shown in FIG. 3A, that determined EC₅₀ values for antigen-specific binding, CD8-overexpressing HEK293T cells were dissociated in Versine solution (PBS buffer at pH 7.4 supplemented with 0.5 mM EDTA), and 2×10⁵ total cells were transferred to a V-bottom 96 well culture plate (Corning). Cells were washed twice with Cell Staining buffer (#420201, Biolegend). Each anti-CD8α antibody with human IgG1 isotype and Fc-silencing mutations L234A, L235A and P329A was diluted in four-fold antibody titration series from 100 μg/mL to 6.1 ng/ml into Cell Staining buffer. eFluor 780 Fixable Viability dye (eBioscience) was also included during antibody solutions at a 1:4000 dilution. Cells were stained with each diluted antibody solution for 30 minutes on ice. Cells were then washed three times with Cell Staining buffer and primary antibody binding was detected by staining with anti-human Fc BV421 conjugate antibody (#410704, Biolegend) at 1:100 dilution for 30 minutes on ice. After staining with the secondary detection antibody, cells were washed three times with Cell Staining buffer, fixed in FluoroFix buffer (Biolegend) and kept at 4° C. in the dark until analysis. Flow cytometry analysis on each sample was performed on an Agilent NovoCyte flow cytometer. Flow cytometry data was analyzed by Flowjo 10 (Becton, Dickinson & Company) to measure the geometric median fluorescence intensity (gMFI) of the on-cell binding from each antibody. The gMFI values were normalized with the gMFI measured in the sample stained with only the secondary detection antibody and plotted against the concentration of the added antibodies. The binding curves were constructed using the Graphpad Prism software, and EC₅₀ values were determined by non-linear curve fitting.

[9] = target: T2, human CD8αα homodimer, recombinant …; assay: BLI steady state, whole hIgG1-LALAPA antibody on CD8α-His (Ni-NTA sensor), 30 °C
Description: (§3) To assess affinity of whole antibodies, steady state analysis was used as the bivalent nature of both whole antibody and CD8α complicates kinetic analysis. 50 nM CD8α-His (that is, CD8α with a C-terminal oligohistidine tag; Acro) was immobilized on Ni-NTA sensor probes. Binding was analyzed with a three-fold antibody dilutions series: 60 nM, 20 nM, 6.67 nM, 2.22 nM, 0.74 nM, and 0.25 nM. The antigen-loaded sensors were incubated in the diluted solutions to capture the whole IgG antibody for 300 s to record the association phase. Sensors were incubated in the kinetic buffer for 900 s to record the dissociation phase. The spin speed was 1000 rpm for all steps except the antigen loading step which was 400 rpm to control density of the antigen. The temperature of the performed assays was at 30° C. during the association and dissociation phases. The sensor data were baseline subtracted and further analyzed in GatorOne software (version 2.10) to determine the equilibrium dissociation constants (KD) of the antibodies by fitting the signals of the steady states to the 1:1 binding model.

[10] = target: T2, human CD8αα homodimer, recombinant …; assay: as above; remark: listed apart in the source
Description: as §3

T4 sequence (P01732 22-235): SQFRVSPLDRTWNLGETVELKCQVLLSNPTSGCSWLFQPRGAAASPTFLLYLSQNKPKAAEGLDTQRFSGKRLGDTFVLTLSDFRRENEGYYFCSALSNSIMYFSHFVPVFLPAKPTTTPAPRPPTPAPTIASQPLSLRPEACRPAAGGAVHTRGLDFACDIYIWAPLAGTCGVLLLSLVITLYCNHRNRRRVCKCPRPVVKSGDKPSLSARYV
T2 sequence (P01732 22-182 limits assumed): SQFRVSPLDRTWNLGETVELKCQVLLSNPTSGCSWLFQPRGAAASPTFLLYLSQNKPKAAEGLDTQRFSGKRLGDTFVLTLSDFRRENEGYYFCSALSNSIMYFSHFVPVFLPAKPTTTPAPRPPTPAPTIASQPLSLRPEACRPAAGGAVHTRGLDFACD
human CD8αβ heterodimer, recombinant protein, sequence (P01732 22-182 limits assumed, chain 1 of 2): as the sequence (P01732 22-182 limits assumed) above
human CD8αβ heterodimer, recombinant protein, sequence (P10966 22-170 limits assumed, chain 2 of 2): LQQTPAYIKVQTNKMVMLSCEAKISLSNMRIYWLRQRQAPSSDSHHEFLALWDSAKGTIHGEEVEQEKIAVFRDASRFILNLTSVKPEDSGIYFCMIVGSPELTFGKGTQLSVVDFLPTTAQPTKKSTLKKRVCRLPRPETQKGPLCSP

B1: CBD1017ch Fab (chimeric CT8 Fab) (Fab, V domains shown)
VH: EVQLQQSGPELVKPGASVKISCKASRYTFTDYNLHWVKLSHEKSLEWIGFIYPYNGGTGYNQKFKNKAKLTVDYSSSTAYMELRSLTSVDAAVYYCARDHRYNEGVSFDYWGQGTTLTVSS
VL: NIVLTQSPASLAVSLGQRATISCRASESVDGFGNSFMNWYQQKPGQSPKLLIYLASNLESGVPARFSGSGSRTDFTLTIDPVEADDAATYYCQQNNEDPYTFGGGTKLEIK
notes: Chimeric: variable regions of mouse CT8 (clone RPA-T8) with human constant parts; also called parental CBD1017ch Fab
B1 gave a Kd [1] of 24.8 nM, a koff [1] of 0.000503 s⁻¹ and a kon [1] of 20300 M⁻¹ s⁻¹. The Kd [2] was 0.814 nM, the koff [2] was 5.67e-05 s⁻¹ and the kon [2] was 69700 M⁻¹ s⁻¹. It also gave a Kd [3] of 2.26 nM, a koff [3] of 6.93e-05 s⁻¹ and a kon [3] of 30700 M⁻¹ s⁻¹. It also gave a Kd [4] of 2.26 nM, a koff [4] of 6.93e-05 s⁻¹ and a kon [4] of 30700 M⁻¹ s⁻¹. It also gave a Kd [5] of 1.08 nM, a koff [5] of 7.53e-05 s⁻¹ and a kon [5] of 69500 M⁻¹ s⁻¹. It also gave a Kd [6] of 1.08 nM, a koff [6] of 7.53e-05 s⁻¹ and a kon [6] of 69500 M⁻¹ s⁻¹. For the same binder, the Kd [7] was 5.75 nM, the koff [7] was 0.000179 s⁻¹ and the kon [7] was 31200 M⁻¹ s⁻¹.

B2: CBD1036-hIgG1-LALAPA (antibody, V domains shown)
VH: QVQLVQSGAEVKKPGASVKISCKASRYTFTDYNLHWVRQAPGQGLEWIGFIYPYNGGTGYAQKFQGRATLTVDTSTSTAYMELSSLRSEDTAVYYCARDHRYNEGVSFDYWGQGTTLTVSS
VL: DIQLTQSPSSLSASVGDRATITCRASESVDGFGNSFMNWYQQKPGKAPKLLIYLASNLESGVPSRFSGSGSRTDFTLTISSVQPEDFATYYCQQNNEDPYTFGQGTKLEIKR
notes: also called h1017-H3/L3 whole antibody
B2 gave an EC50 [8] of 2.69 nM and a Kd [9] of 5.15 nM.

B3: CBD1037-hIgG1-LALAPA (antibody, V domains shown)
VH: QVQLVQSGAEVKKPGASVKVSCKASRYTFTDYNLHWVRQAPGQGLEWMGFIYPYNGGTGYAQKFQGRVTMTVDYSTSTAYMELSSLRSEDTAVYYCARDHRYNEGVSFDYWGQGTTVTVSS
VL: DIQLTQSPSSLSASVGDRATITCRASESVDGFGNSFMNWYQQKPGKAPKLLIYLASNLESGVPSRFSGSGSGTDFTLTISSVQPEDFATYYCQQNNEDPYTFGQGTKLEIKR
notes: also called h1017-H4/L2 whole antibody
B3 showed an EC50 [8] of 2.42 nM and a Kd [9] of 2.32 nM.

B4: CBD1038-hIgG1-LALAPA (antibody, V domains shown)
VH: QVQLVQSGAEVKKPGASVKVSCKASRYTFTDYNLHWVRQAPGQGLEWMGFIYPYNGGTGYAQKFQGRVTMTVDYSTSTAYMELSSLRSEDTAVYYCARDHRYNEGVSFDYWGQGTTVTVSS
VL: DIQLTQSPSSLSASVGDRATITCRASESVDGFGNSFMNWYQQKPGKAPKLLIYLASNLESGVPSRFSGSGSRTDFTLTISSVQPEDFATYYCQQNNEDPYTFGQGTKLEIKR
notes: also called h1017-H4/L3 whole antibody
In the case of B4, the EC50 [8] is reported as 2.57 nM and the Kd [9] is reported as 4.74 nM.

B5: CBD1050 (antibody, human IgG1, kappa, L234A L235A, V domains shown)
VH: QVQLVQSGAEVKKPGASVKVSCKASRYTFTDYNLHWVRQAPGQGLEWIGFIYPYNGGTGYAQKFQGRVTLTVDYSTSTAYMELSSLRSEDTAVYYCARDHRYNEGVSFDYWGQGTLVTVSS
VL: EIVLTQSPGTLSLSPGERATLSCRASESVDGFGNSFMNWYQQKPGQAPRLLIYLASNLESGVPARFSGSGSRTDFTLTISRLEPEDFAVYYCQQNNEDPYTFGQGTKVEIKR
notes: also called h1017-H10/L6 whole antibody hIgG1-LALAPA
B5 was tested, and the Kd [10] was 6.41 nM.

B6: CBD1049 (antibody, human IgG1, kappa, L234A L235A, V domains shown)
VH: QVQLVQSGAEVKKPGASVKVSCKASRYTFTDYNLHWVRQAPGQGLEWIGFIYPYNGGTGYAQKFQGRVTLTVDYSTSTAYMELSSLRSEDTAVYYCARDHRYNEGVSFDYWGQGTLVTVSS
VL: EIVLTQSPGTLSLSPGERATLSCRASESVDGFGNSFMNWYQQKPGQAPRLLIYLASNLESGVPARFSGSGSGTDFTLTISRLEPEDFAVYYCQQNNEDPYTFGQGTKVEIKR
notes: also called h1017-H10/L5 whole antibody hIgG1-LALAPA
For B6, the Kd [10] was 3 nM.
